# Test results from patent US20230038638A1, “COMPLEMENT FACTOR I-RELATED COMPOSITIONS AND METHODS” (published 2023).
# Tests used:
# human C4b (human) = biological target: T1, human C4b (human) (UniProt P0C0L4)
# T1 sequence: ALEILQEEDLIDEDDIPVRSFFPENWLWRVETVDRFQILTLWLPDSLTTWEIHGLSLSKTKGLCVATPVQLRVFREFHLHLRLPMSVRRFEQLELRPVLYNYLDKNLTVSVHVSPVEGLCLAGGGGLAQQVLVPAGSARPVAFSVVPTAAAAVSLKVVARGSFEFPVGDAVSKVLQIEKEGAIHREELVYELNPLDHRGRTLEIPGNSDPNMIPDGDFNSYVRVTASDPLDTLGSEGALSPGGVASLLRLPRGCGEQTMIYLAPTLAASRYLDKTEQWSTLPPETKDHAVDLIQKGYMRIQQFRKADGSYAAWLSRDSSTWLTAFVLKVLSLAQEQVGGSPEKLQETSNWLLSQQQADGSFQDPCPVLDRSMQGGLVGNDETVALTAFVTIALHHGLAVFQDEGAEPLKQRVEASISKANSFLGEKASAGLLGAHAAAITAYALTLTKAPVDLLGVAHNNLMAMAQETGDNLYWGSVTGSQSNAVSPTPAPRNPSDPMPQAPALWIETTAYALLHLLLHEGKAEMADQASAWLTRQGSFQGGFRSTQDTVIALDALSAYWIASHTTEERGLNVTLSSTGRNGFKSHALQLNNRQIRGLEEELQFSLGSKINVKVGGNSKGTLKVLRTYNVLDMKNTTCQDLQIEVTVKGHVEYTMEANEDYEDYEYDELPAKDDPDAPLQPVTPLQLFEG
# [1] = biological target: soluble human C3b (human) (UniProt P01024)
Substance,C4b Screen Ref Fold (fold of CFI-HSA wild type) (human C4b (human)),iC3b Screen Ref Fold (fold of CFI-HSA wild type) [1]
CFI-HSA D506F (enzyme),0.35,-0.03
CFI-HSA D506H (enzyme),0.31,0
CFI-HSA D506I (enzyme),0.16,-0.02
CFI-HSA D506K (enzyme),0.3,0.03
CFI-HSA D506L (enzyme),0.41,-0.03
CFI-HSA D506M (enzyme),0.05,0.01
CFI-HSA D506N (enzyme),0.03,0.05
CFI-HSA D506P (enzyme),0.18,-0.04
CFI-HSA D506Q (enzyme),0.47,-0.02
CFI-HSA D506S (enzyme),-0.02,0
CFI-HSA D506T (enzyme),0.39,0.04
CFI-HSA D506W (enzyme),0.01,0.03
CFI-HSA D506Y (enzyme),0.02,-0.05
CFI-HSA E457G; E461Q; F464Y (enzyme),6.56,1.25
CFI-HSA E457G; E461Q; R462K (enzyme),6.74,1.54
CFI-HSA E457G; F464Y (enzyme),5.55,1.31
CFI-HSA E457G; N531G (enzyme),6.5,0.88
CFI-HSA E457G; R462K (enzyme),4.33,1.11
CFI-HSA E457G; R462K; F464Y (enzyme),4.82,0.96
CFI-HSA E457G; S507A (enzyme),0.01,-0.01

Substance,C4b Screen Ref Fold (fold of CFI-HSA wild type) (human C4b (human)),iC3b Screen Ref Fold (fold of CFI-HSA wild type) [1]
CFI-HSA E457G; S507A; GGSSGG (SEQ ID NO: 6); CCP_1-4 (enzyme),0.12,0.01
CFI-HSA E457G; Y408L (enzyme),4.83,1.39
CFI-HSA E461Q; F464Y (enzyme),6.36,1.11
CFI-HSA E461Q; R462K (enzyme),4.69,1.23
CFI-HSA E461Q; R462K; F464Y (enzyme),4.92,0.59
CFI-HSA F208Y (enzyme),0.6,1.5
CFI-HSA F208Y; F246Y; F480Y; F537Y (enzyme),0.42,1.45
CFI-HSA F246Y (enzyme),0.48,1.56
CFI-HSA F464A (enzyme),-0.01,0.02
CFI-HSA F464H (enzyme),0.1,0.23
CFI-HSA F464I (enzyme),0.09,0.01
CFI-HSA F464L (enzyme),0.15,0
CFI-HSA F464P (enzyme),0.15,-0.01
CFI-HSA F480Y (enzyme),1.84,1.14
CFI-HSA F537Y (enzyme),1.64,1.03
CFI-HSA H362T; R456I; D459W; S343R (enzyme),0.13,-0.04
CFI-HSA H362T; R456I; S343K (enzyme),0.18,0
CFI-HSA H362T; R456I; S343R (enzyme),0.08,-0.01
CFI-HSA H362T; V463S; R456F; D459W; S343R (enzyme),0.3,-0.01
CFI-HSA H362T; V463S; R456I; D459W; S343K (enzyme),0.04,-0.02

Substance,C4b Screen Ref Fold (fold of CFI-HSA wild type) (human C4b (human)),iC3b Screen Ref Fold (fold of CFI-HSA wild type) [1]
CFI-HSA H362T; V463S; R456I; D459W; S343R (enzyme),0.26,0
CFI-HSA H362T; V463S; R456I; S343R (enzyme),0.13,-0.02
CFI-HSA K14A; D425R; Y408L-N531G (enzyme),3.94,1.78
CFI-HSA K504D; Y408L; N531G (enzyme),3.45,0.07
CFI-HSA K504E; Y408L; N531G (enzyme),3.27,0.15
CFI-HSA K534A (enzyme),1.14,1.31
CFI-HSA K534D (enzyme),2.29,0.72
CFI-HSA K534E (enzyme),0.82,1.19
CFI-HSA K534F (enzyme),0.97,0.91
CFI-HSA K534G (enzyme),0.17,0.13
CFI-HSA K534H (enzyme),1.9,1.79
CFI-HSA K534I (enzyme),3.03,0.83
CFI-HSA K534L (enzyme),3.12,0.87
CFI-HSA K534M (enzyme),3.89,0.95
CFI-HSA K534N (enzyme),3.36,0.88
CFI-HSA K534P (enzyme),0.11,0
CFI-HSA K534R (enzyme),1.81,1.44
CFI-HSA K534S (enzyme),2.65,0.92
CFI-HSA K534T (enzyme),1.44,0.77
CFI-HSA K534V (enzyme),1.96,1.49
